Results on 2 substances are retold here after publication PMC10347550, “Cyclic Ruthenium-Peptide Conjugates as Integrin-Targeting Phototherapeutic Prodrugs for the Treatment of Brain Tumors” (Journal of the American Chemical Society, 2023).

Where two headings read alike, the source gives them in different places.

In general, EC50 refers to the concentration at which the effect is half-maximal.

Data set [1] is described as follows: Dark stability by UV-vis spectroscopy. It counts as physicochemical. The note with it: 24 h.
The test system of the next data set is U87MG spheroids. In words: 3D tumor spheroid viability assay, CellTiter-Glo 3D. In kind it is cell-based, human. Particulars: U87MG 3D spheroids; for EC50: CellTiter-Glo 3D at 96 h, n = 3. On the procedure: The spheroids were incubated further under normoxia. […] After 30 min of shaking on an IKA Vibrax shaker at 500 rpm at room temperature, the luminescence in each well was measured with a Tecan microplate reader. […] All experiments were conducted in three biologically independent replicates.
Background: ATP-based viability assays read luminescence as a measure of living cells.

Data set [2] concerns ITGAV knockdown U87MG cells (U87MG-kd). As to the kind of experiment: Cellular Ru uptake by ICP-MS, 2 h. In kind it is cell-based, human. The note with it: 10 μM, dark, normoxia, n = 3. The procedure: The uptake studies in U87MG and U87MG-kd cell lines were conducted as follows: 2 × 10^5 cells were cultured in 6-well plates for 24 h in Opti-MEM (2 mL), after which cells were incubated with Δ-[1]Cl2 or Δ-[3]Cl2 (10 μM) for 2 h, washed with cold PBS twice, harvested, concentrated in 200 μL of PBS, and counted using trypan blue and a cell counter (Bio-Rad). Finally, cell pellets were collected in 1.5 mL Eppendorf tubes after removing additional PBS by centrifuging at 500g; 0.25 mL of 65% HNO3 was then added to each tube, and all tubes were kept at room temperature (RT) overnight. The cell lysates were transferred to 15 mL centrifuge tubes (Biologix) and filled with 4.75 mL of MilliQ H2O.
(§1) The ruthenium concentration was measured in each sample by ICP-MS (NexION 2000, PerkinElmer), providing the metal content in each well in ppb. Combining the cell numbers and Ru uptake, averaging over technical triplicates, the ruthenium uptake values were finally expressed in μg Ru/million cells.

The test system of the next data set is U87MG cells. In words: Cellular Ru uptake by ICP-MS. In kind it is cell-based, human. The note with it: dark, 6 h, triplicate wells, ± SEM. The procedure:
(§2) U87MG cells (6000), PC-3 cells (5000), and MCF7 cells (8000) were seeded in 96-well plates, each well containing 100 μL of Opti-MEM. After 24 h, 12.5 μM drugs dissolved in Opti-MEM were added to each well and the plates were incubated in a normoxic or hypoxic incubator for 6 h. After that, the drug-containing medium was removed from each well, which was washed with PBS buffer once. Then, cells were stained by Nuclear Blue (Invitrogen, R37605) for 30 min to stain all nuclei (2 drops/mL medium). After this, the dye was thereafter removed and replaced with fresh medium. The entire well was imaged with 10× objective magnification and 7 × 6 montage using epifluorescence on a Nikon TiE2000 widefield microscope with a perfect focus system and automated xy-stage. The cell number of every well was analyzed by counting the nuclei using Image-Pro Analyzer 7.0. Thereafter, the medium was removed and the cells were digested by adding 100 μL of 65% HNO3 for 30 min at room temperature. The cell lysates were transferred into a 96-deep well plate (Eppendorf, E951033502), followed by the addition of 0.9 mL of MilliQ water into each well, and the plate was then mixed well with a 1000 μL Eppendorf pipette.
as §1

The next data set concerns PC-3 cells. In words: Cellular Ru uptake by ICP-MS. It counts as cell-based, human. The note with it: dark, 6 h, triplicate wells, ± SEM. On the procedure: as §2, §1
The subject of the next data set is MCF7 cells. In words: Cellular Ru uptake by ICP-MS. In kind it is cell-based, human. Particulars: dark, 6 h, triplicate wells, ± SEM. On the procedure: as §2, §1
The mark [3] stands for this setting: 21% O2, dark, 24 h treatment, read-out: EC50,dark.
Setting [4] is: 21% O2, green light after 24 h treatment, read-out: EC50,light.

With “[Ru(Ph2phen)2(κ^S,κ^N-(Ac-MRGDH-NH2))]Cl2 (sidechain bridge or staple) [Δ-[1]Cl2] [cyclic ruthenium-peptide conjugate, Ac-MRGDH-NH2 coordinated via Met S and His N]”, the “dark stability, absorbance spectra” value in data set [1] (50 μM in Opti-MEM containing 2.5% FCS, UV-vis) is “did not show any variation for 24 h”. Moreover, the “intensity of the UV-vis spectrum” value in data set [1] (50 μM in Opti-MEM deprived of FCS) is “gradually decreased, suggesting precipitation”. Moreover, the “PI (EC50,dark/EC50,light)” value in the data set on U87MG spheroids (21% O2) is on record as 4.2. The EC50 worked out at 46 µM in the data set on U87MG spheroids (setting [3]) and 10.9 µM with U87MG spheroids (setting [4]). Moreover, the “uptake amount compared to U87MG-wt cells” value in data set [2] is on record as “significantly decreased”. Besides, the Ru accumulation worked out at 0.78 ± 0.01 µg Ru/million cells in the data set with U87MG cells (hypoxia 1% O2, 12.5 µM); 0.73 ± 0.01 µg Ru/million cells with U87MG cells (normoxia 21% O2, 12.5 µM); 0.63 ± 0.02 µg Ru/million cells in the data set with PC-3 cells (PC-3, hypoxia 1% O2, 12.5 µM); 0.51 ± 0.01 µg Ru/million cells in the data set on PC-3 cells (PC-3, normoxia 21% O2, 12.5 µM); 0.31 ± 0.01 µg Ru/million cells in the data set with MCF7 cells (MCF7, hypoxia 1% O2, 12.5 µM); 0.21 ± 0.01 µg Ru/million cells in the data set on MCF7 cells (MCF7, normoxia 21% O2, 12.5 µM).

As for “[Ru(Ph2phen)2(κ^S,κ^N-(Ac-MRGDH-NH2))]Cl2 (sidechain bridge or staple) [Λ-[1]Cl2] [cyclic ruthenium-peptide conjugate, Ac-MRGDH-NH2 coordinated via Met S and His N]”, the “PI (EC50,dark/EC50,light)” value in the data set on U87MG spheroids (21% O2) came to 4.9. Besides, the EC50 was determined as 37 µM in the data set with U87MG spheroids (setting [3]) and 7.6 µM in the data set on U87MG spheroids (setting [4]). In addition, the Ru accumulation stood at 0.84 ± 0.01 µg Ru/million cells with U87MG cells (hypoxia 1% O2, 12.5 µM, listed as L-[1]Cl2); 0.74 ± 0.01 µg Ru/million cells with U87MG cells (normoxia 21% O2, 12.5 µM); 0.68 ± 0.01 µg Ru/million cells in the data set on PC-3 cells (PC-3, hypoxia 1% O2, 12.5 µM, listed as L-[1]Cl2); 0.55 ± 0.03 µg Ru/million cells with PC-3 cells (PC-3, normoxia 21% O2, 12.5 µM, listed as L-[1]Cl2); 0.31 ± 0.01 µg Ru/million cells in the data set with MCF7 cells (MCF7, hypoxia 1% O2, 12.5 µM); 0.25 ± 0.01 µg Ru/million cells in the data set on MCF7 cells (MCF7, normoxia 21% O2, 12.5 µM, listed as L-[1]Cl2).
